# From US20230028899A1
# Biological target: CD19 on CD19+ Raji B cells (UniProt P15391)
# Assay: cell-based or functional assay
# UniProt P15391, sequence (P15391 20-556 limits assumed): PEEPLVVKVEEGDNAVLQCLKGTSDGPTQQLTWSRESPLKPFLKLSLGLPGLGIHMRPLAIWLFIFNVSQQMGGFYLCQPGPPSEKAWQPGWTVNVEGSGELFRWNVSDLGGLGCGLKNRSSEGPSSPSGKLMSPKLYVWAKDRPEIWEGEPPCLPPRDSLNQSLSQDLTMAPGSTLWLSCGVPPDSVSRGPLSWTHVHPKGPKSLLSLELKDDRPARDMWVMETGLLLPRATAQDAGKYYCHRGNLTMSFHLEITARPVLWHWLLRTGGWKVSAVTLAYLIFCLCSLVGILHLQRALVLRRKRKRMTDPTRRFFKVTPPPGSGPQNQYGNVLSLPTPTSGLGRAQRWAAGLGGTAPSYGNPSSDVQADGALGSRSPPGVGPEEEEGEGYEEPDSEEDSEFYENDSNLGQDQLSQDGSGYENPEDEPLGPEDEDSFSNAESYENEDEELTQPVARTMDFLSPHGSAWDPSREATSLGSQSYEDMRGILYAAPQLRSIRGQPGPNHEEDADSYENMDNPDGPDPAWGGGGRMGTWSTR
substance,measurement,value
"anti-CD19 CAR (anti-CD19 CAR cassette as described in WO 2012/079000), expressed on transduced CD4+ T-cells","GFP fluorescence of transduced T-cells (GFP-RDE1, MinP), 24 h co-culture, flow cytometry",6.5%
same,"activated cells in the population (CD25/CD69 staining), 24 h co-culture, GFP-RDE1 construct",0.9 to 84.8%
same,"activated cells in the population (CD25/CD69 staining), 24 h co-culture, GFP-RDE2.1 construct",3.9 to 12.1%
same,"fold change in IL-12 expression (ELISA), NFAT promoter, 3'-UTR not responsive to CAR stimulation",50 fold
same,"fold change in IL-12 expression (ELISA), NFAT promoter, RDE1 (Gold1)",168 fold
same,"fold change in IL-12 expression (ELISA), minP promoter, RDE1 (Gold1)",6.3 fold
same,"fold increase in bioluminescence, MinP promoter, RDE1",4.1 fold
same,"fold increase in bioluminescence, MinP promoter, RDE2",1.8 fold
same,"fold increase in bioluminescence, MinP promoter, RDE3",1.4 fold
same,"fold increase in bioluminescence, NFAT promoter, RDE1",8.5 fold
same,"fold increase in bioluminescence, NFAT promoter, RDE2",3.1 fold
same,"fold increase in bioluminescence, NFAT promoter, RDE3",1.3 fold
